Series [1] concerns human Burkitt lymphoma cell line CA46. As to the kind of experiment: CA46 tumor size and weight in irradiated BALB/c nu/nu mice treated with MBP or MBP-vaso. It counts as in vivo. The note with it: 400 rad, CA46 s.c.; MBP 40 μg/mouse/day or MBP-vaso 60 μg/mouse/day s.c. The procedure: (§1) To examine this further, 7 week old BALB/c nu/nu mice were first irradiated with 400 rad. After 24 hr, the mice were incoculated s.c. with the human Burkitt lymphoma cell line CA46. One group of mice (n=12) was treated s.c. with the control protein maltose binding protein (MBP, 40 μg/mouse/day), whereas another group (n=12) was treated s.c. with MBP-vaso (60 μg/mouse/day). Some of the mice from each group were killed on day 15, whereas the other mice were kept for up to 2.5 months.

In series [2] the test system is bone marrow hematopoietic cells. The series is described as follows: Radiation-induced toxicity in irradiated tumor-bearing BALB/c nu/nu mice (appearance, femural bone marrow histology). It counts as in vivo, mouse. The procedure: This healthier appearance was due, in part, to the larger weight of mice treated with vaso compared to the controls.
as §1

In series [3] the test system is murine Lin- bone marrow cells enriched with hematopoietic progenitors. The series is described as follows: Proliferation of lineage-negative bone marrow population enriched for hematopoietic progenitors. It counts as cell-based, mouse. The procedure:
FIG. 11 is a set of two bar graphs showing the proliferative responses of unseparated (FIG. 11A) and purified (FIG. 11B) bone marrow cell populations in response to vaso. Bone marrow cell populations, obtained from the femural cavities of C57BL/6NCR mice (9 weeks of age) were either used as such or were further purified by negative selection as lineage negative (CD5, CD45R, CD11b, Gr-1 and TER119) cells by magnetic cell depletion. Both cell populations were incubated (0.5×10^6 cells/ml) in culture medium supplemented with IL-3 (20 ng/ml) with or without vaso (10 μg/ml). Cell proliferation was measured by ^3H thymidine incorporation during the final 22 hr of a 4, 5 or 6-day (D) culture. Data shown reflects the mean of triplicate cultures.
The examples described above utilized unpurified populations of murine bone marrow cells derived from the femur. To characterize the cell or cells within the bone marrow cell population that are targets of stimulation by vaso, cell separation experiments were performed. […]
The effects of vaso were tested on this cell population that is enriched with murine hematopoietic cells, and compared with unseparated bone marrow populations. […] On days 4 and 5, cell proliferation was measured. […]

The test system of series [4] is variety of cell and cell lines. The series is described as follows: Proliferation of a variety of cells and cell lines (mononuclear cells, lymphoid, tumor lines, fibroblasts). The class given is cell-based, human. The note with it: vaso 0.25 to 50 μg/ml. The source says:
Human mononuclear cells, and mononuclear cells enriched for B or T cells, were used in proliferation assays in the presence of phytohemagglutinin(Sigma), pokeweed mitogen (Sigma) or Epstein-Barr virus (B95-8 strain), as described previously (Tosato et al., 1988). The lymphoblastoid cell line VDS-0, the Burkitt cell lines CA46, BL41, KK124, Ag876, SHO (Cherney et al., 1997), the T-cell line Molt-4 (ATCC), the Hodgkin's lymphoma cell line Hs445 (ATCC); the prostate adenocarcinoma cell lines TSU-Prl (from A. Passaniti, NIH, Baltimore, Md.), Du145 (ATCC), and PC3 (ATCC), and the acute promyelocytic leukemia cell line HL60 (ATCC) were cultured in RPMI 1640 medium with 10% heat-inactivated FCS (BioWhittaker), […] L-glutamine (Sigma) and 5 μg/ml gentamicin, and tested in 3-5 days proliferation assays at cell densities varying from 300 to 2400 cells/microwell. The neuroblastoma cell line SKNMC (ATCC) was cultured in EMEM medium BioWhittaker) with 10% heat inactivated FCS and gentamicin and tested for proliferation at 125-1000 cells/well. The lung adenocarcinoma cell line A549 (ATCC) was cultured in F-12 Nutrient Mixture (HAM, Gibco BRL) with 10% heat-inactivated FCS, gentamicin and tested for proliferation at 250-2000 cells/well. […]

The subject of series [5] is human umbilical vein-derived (HUVEC) endothelial cells. The note with it: as previously reported (Pike et al., 1998; 1999); cited from earlier work.

B1: vaso: N-terminal domain of calreticulin (amino acids 1-180, SEQ ID NO:3); given as fusion protein with maltose binding protein, MBP-vaso (protein)
chain: EPAVYFKEQFLDGDGWTSRWIESKHKSDFGKFVLSSGKFYGDEEKDKGLQTSQDARFYALSASFEPFSNKGQTLVVQFTVKHEQNIDCGGGYVKLFPNSLDQTDMHGDSEYNIMFGPDICGPGTKKVHVIFNYKGKNVLINKDIRCKDDEFTHLYTLIVRPDNTYEVKIDNSQVESGSLE
modifications: Vasostatin
In series [1], B1 showed a tumor size of 0.67 cm^2 and a tumor weight of 0.22 g. Moreover, in series [2] (BALB/c nu/nu mice, 400-450 rad, injected s.c. with human tumor cell lines, vs buffer control), the “appearance of irradiated mice” value is recorded as “appeared healthier”. Further, the “femural bone marrow histology after 400 rad total body irradiation” value in series [2] (MBP 40 μg/mouse/day or MBP-vaso 60 μg/mouse/day s.c. after irradiation) was “can protect the hematopoietic tissue from radiation-induced toxicity”. For the same molecule, in series [3] (IL-3 alone or IL-3 together with IL-6 and Stem Cell Factor), the “cell growth of murine bone marrow cells enriched for hematopoietic cells by negative selection” value is recorded as “similarly stimulated cell growth”. Besides, the “increase in cell proliferation on day 5” value in series [3] (enriched marrow, vaso 10 μg/ml, IL-3 20 ng/ml) is recorded as 3.3 fold. The “effects on proliferation of a variety of cell and cell lines” value in series [4] is on record as “minimal stimulatory (or inhibitory) effects”. Further, the “bone marrow cell proliferation induced by IL-3 at the highest dose of cisplatinum” value with murine bone marrow cells was “minimal”. For the same molecule, the “proliferation of primary cultures of HUVEC” value in series [5] is given as “consistently inhibited the proliferation”.
